Measured values: paper PMC5832301

Molecular target: UDP-glucose pyrophosphorylase from sugarcane (ScUGPase-1) (sugarcane (Saccharum spp. hybrids))
Assay: SEC-MALS; sample of the larger oligomeric form peak; Superdex 200 increase 5/150, room temperature, 2.0 mg/mL, 20 mM Tris/HCl pH 8.0, 20 mM NaCl

stoichiometry N: 8
Substance: UDP-glucose pyrophosphorylase from sugarcane (ScUGPase-1) (from UniProt A0A075E2Q1 1-476) (enzyme)
